Holding throughout (assay type): cell-based, Rat
In assay [1] the test system is anti-TNP IgE labelled RBL2H3-hGB cells. Briefly: IgE-allergen sensor, granzyme B release (Example 16). Conditions: substrate 1 uM. From the text: This example describes the use of the sensor for testing modulators of mast cells granule exocytosis widely used to find novel anti-allergic compounds as illustrated in FIG. 1. RBL2H3 were stably transfected with human granzyme B under the control of hCMV-MoLV5′LTR chimeric promoter as described in example 3. A mouse IgE monoclonal antibody against trinitrophenyl hapten was purified from IgELb4 hybridoma purchased from ATCC (TIB-141). TNP-N-hydroxysuccinimide esther was purchased from Biosearch Technologies Inc and conjugated to bovine serum albumin (BSA) using a standard protocol. Conjugation was determined at pH 7.0 by measuring TNP absorbance at 348 nm using 15400 units per mol per 10 mm light pass length as the extinction coefficient of TNP. Molar ratio of TNP to BSA in the TNP-BSA conjugate was calculated assuming the molecular weight of BSA is 60000. Sensor cells were cultivated as adherent cells for 48 hours in 6 well plates and then washed with HBSS and harvested by pippeting. 500.000 cells were labelled with anti-TNP IgE at 1 ug/ml_in HBSS for 60 minutes at 37 Celsius degrees, washed with 10 mL of HBSS, centrifuged and pellet was resuspended in 1 mL of HBSS. In a black wall 384 well plate 10 uL of serial dilutions of TNP-BSA in HBSS were added each containing the FRET-based granzyme B substrate FAM-[…]TAMRA (FAM-[…]-TAMRA) at 1 uM final concentration whose cleavage was detected by fluorescence using excitation at 485 nm and emission at 535 nm. Dilutions of TNP-BSA tested were: 1 ug/mL, 1 ng/mL, 1 pg/mL and 1 fg/mL. To each well 10 uL (5000 cells) of anti-TNP IgE labelled cells were added and plates were incubated at 37 Celsius degrees in a BMG-Labtech microplate fluorimeter. Microplate was read at 0, 15, 30, 45 and 60 minutes. The following controls were included: (1) wells with anti-TNP IgE labelled cells plus granzyme B substrate but without TNP-BSA; (2) wells with non-labelled cells plus granzyme B substrate and TNP-BSA at 1 ug/ml_; (3) wells with granzyme B substrate and TNP-BSA at 1 ug/ml_but no cells. Each well was included by triplicate.

The subject of assay [2] is RBL-2H3 cells. Briefly: Ionomycin-induced release of granule stored protease reporters from stable cell lines (Example 5). Conditions: stable RBL-2H3, 10 uM ionomycin 1 hour, supernatant equivalent to 100.000 cells, AMC substrate. The source says: As either tryptase-like enzymes, chymase-like enzymes, elastase-like enzymes or asp-ase like enzymes are useful for the methods of the present invention we selected human granzyme A (tryptase-like enzyme); human granzyme B (Asp-ase-like enzyme); human chymase (chymase-like enzyme) and human proteinase 3 (elastase-like enzyme) for further examples. Vectors were developed for stable expression of human granzyme A, human granzyme B, human chymase and human proteinase 3 under the control of hCMV-MoMLV5′LTR chimeric promoter. A hygromycin resistance cassette was included in the vector backbone for selection of stable populations of cells. The vector also included an IRES-NGFR cassette cloned downstream of granule stored protease reporter and thus, under the control of hCMV-MoMLV5′LTR promoter for flow cytometry and/or selection by MACS of stable cells expressing either human granzyme A or human granzyme B or human chymase or human proteinase 3. Each vector was individually electroporated using a microporator (Digital Bio Technology, South Korea) into RBL-2H3 and after 48 hours hygromycin at 1500 ug/mL was added to culture for selection. After selection for about 2 weeks cells were analysed by flow cytometry (Guava Technologies, USA) with an antibody against NGFR coupled to FITC. Positive population where magnetically separated by MACS using anti-NGFR-MACS sup.R (Miltenyi Biotec, Germany). Sorted populations were again analysed again by flow cytometry to check the sorting efficiency. Percentage of NGFR positive cells was always higher than 65 percent. Cells were seeded the night before experiment in 24 well microplates at 650.000 cells per well in 800 microliters of complete cell culture medium. Next day cells were washed with HBSS buffer and were treated with 10 uM ionomycin for 1 hour at 37 Celsius degrees in 200 uL of HBSS buffer and after centrifugation at 400 g for 5 minutes supernatants were analysed for activity with specific fluorescent substrates. Controls of cells incubated with HBSS buffer only were included. Fluorescent substrates were: VANR-AMC for granzyme A; PEEI-AMC for human neutrophil elastase; PTSY-AMC for human chymase; VADC-AMC for human proteinase 3 and IEPD-AMC for human granzyme B. Released AMC was measured by excitation at 360 nm and emission at 460 nm in a BMG Labtech microplate fluorimeter in 96 well microplates using 125 microliters of supernatant and 125 microliters of specific substrate at 400 micromol per liter in HBSS buffer. Microplates were incubated at 37 Celsius degrees on the reader and were kinetically read at 0, 15, 30, 45 and 60 minutes. Control wells with substrate only in HBSS buffer were included to subtract autofluorescence of substrates to both cells treated with ionomycin and to cells treated with HBSS buffer only. Autofluorescence of peptide substrates in HBSS buffer was about 3000 while fluorescence of cells treated with HBSS buffer only for 60 minutes at 37 Celsius degrees was about 5000, that is basal release in the absence of exocytosis modulator was about 2000. In contrast, fluorescence of ionomycin-induced release of human granzymes A and B was about 20.000 for a signal to background of 10 when using the supernatant equivalent to 100.000 cells; fluorescence of ionomycin-induced release of human chymase was about 30.000 for a signal to background of 15 when using the supernatant equivalent to 100.000 cells and fluorescence of ionomycin-induced release of human proteinase 3 was about 12.000 for a signal to background of 6 when using the supernatant equivalent to 100.000 cells. Thus, tryptase-like enzymes, chymase-like enzymes, elastase-like enzymes or asp-ase like enzymes can be stably expressed into granules of hemopoyetic cells with professional regulated exocytosis and such granule stored proteases are released by exocytosis modulators to produce sensors with good signal to background ratios using specific AMC-coupled peptide substrates. […]

In assay [3] the test system is RBL-2H3 cells. In words: Activity of granule stored protease reporters released by ionomycin, transient transfection (Example 4). Conditions: transiently transfected RBL-2H3, 650.000 cells, 10 uM ionomycin 1 hour, supernatant. The source says:
Vectors were developed to express human granzyme A, M, H and K and human neutrophil elastase, human chymase, human cathepsin G and human proteinase 3 under the control of hCMV-MoMLV5′LTR chimeric promoter and RBL-2H3 cells were individually transfected by electroporation using a microporator (Gentelbio, South Korea) with the above plasmids and also with human granzyme B plasmid as control and with cytosolically truncated hNGFR receptor as a surface tag for determination of the percentage of transfection by flow cytometry with a anti-hNGFR monoclonal antibody conjugated to FITC (Miltenyi Biotec, Germany). After 48 hours cells were harvested by pipetting, washed with HBSS buffer and counted. 650.000 cells in 200 microliters of HBSS buffer were treated in suspension with 10 uM ionomycin for 1 hour and after centrifugation at 400 g for 5 minutes the supernatants were analysed for activity with specific fluorescent substrates. Controls of cells incubated with HBSS buffer only were included. Fluorescent substrates were specific tetrapeptides conjugated to 7-Amido-4-Methylcoumarin (AMC) and were custom synthesized by a custom peptide supplier. Specific substrates were: VANR-AMC for granzyme A; KVPL-AMC for granzyme M; PTSY-AMC for granzyme H; YRFK-AMC for granzyme K; PEEI-AMC for human neutrophil elastase; PTSY-AMC for human chymase; PTSY-AMC for human cathepsin G; VADC-AMC for human proteinase 3 and IEPD-AMC for human granzyme B. Released AMC was measured by excitation at 360 nm and emission at 460 nm in a BMG Labtech microplate fluorimeter in 96 well microplates using 125 microliters of supernatant and 125 microliters of specific substrate at 400 micromol per liter in HBSS buffer. Microplates were incubated at 37 Celsius degrees on the reader and were kinetically read at 0, 15, 30, 45 and 60 minutes. Percentage of transient electroporation measured using truncated hNGFR tag and anti-hNGFR-FITC antibody was about 60 percent.

Turning to “TNP-BSA: trinitrophenyl hapten conjugated to bovine serum albumin, model allergen”, the “Fluorescence after 30 minutes at 37° C.” value in assay [1] (TNP-BSA 1 pg/mL, 5000 cells with anti-TNP IgE) is listed as 35884; in assay [1] (TNP-BSA 1 ng/mL, 5000 cells with anti-TNP IgE) it was 34556; in assay [1] (TNP-BSA 1 ug/mL, 5000 cells with anti-TNP IgE) it was 30942; in assay [1] (TNP-BSA 1 ug/mL, 5000 cells without anti-TNP IgE (non-labelled)), 2935; in assay [1] (TNP-BSA 1 fg/mL, 5000 cells with anti-TNP IgE), 29826.

B1: human proteinase 3: Elastase-like serine protease (PRTN3, NM_002777) used as granule stored reporter (protein, UniProt P24158 28-248, looked up)
Myeloblastin: IVGGHEAQPHSRPYMASLQMRGNPGSHFCGGTLIHPSFVLTAAHCLRDIPQRLVNVVLGAHNVRTQEPTQQHFSVAQVFLNNYDAENKLNDVLLIQLSSPANLSASVATVQLPQQDQPVPHGTQCLAMGWGRVGAHDPPAQVLQELNVTVVTFFCRPHNICTFVPRRKAGICFGDSGGPLICDGIIQGIDSFVIWGCATRLFPDFFTRVALYVDWIRSTLR
As to B1, in the assay on RBL-2H3 cells [2], the “fluorescence of ionomycin-induced release” value is on record as “about 12.000” and the signal to background is 6. In addition, the “enzymatic activity of released reporter with specific AMC substrate” value (“enzymatic activity of released reporter” for short) in the assay on RBL-2H3 cells [3] is “equivalent activity that was higher than that of human granzyme M”.

B2: neutrophil elastase: Elastase-like serine protease (ELA2, NM_001972) used as granule stored reporter (protein, UniProt P08246 30-267, looked up)
Neutrophil elastase: IVGGRRARPHAWPFMVSLQLRGGHFCGATLIAPNFVMSAAHCVANVNVRAVRVVLGAHNLSRREPTRQVFAVQRIFENGYDPVNLLNDIVILQLNGSATINANVQVAQLPAQGRRLGNGVQCLAMGWGLLGRNRGIASVLQELNVTVVTSLCRRSNVCTLVRGRQAGVCFGDSGSPLVCNGLIHGIASFVRGGCASGLYPDAFAPVAQFVNWIDSIIQRSEDNPCPHPRDPDPASRTH
As to B2, the “enzymatic activity of released reporter” value in the assay on RBL-2H3 cells [3] was “equivalent activity that was higher than that of human granzyme M”.

B3: human chymase: Chymase-like serine protease (CMA1, NM_001836) used as granule stored reporter (protein, UniProt P23946 22-247, looked up)
Chymase: IIGGTECKPHSRPYMAYLEIVTSNGPSKFCGGFLIRRNFVLTAAHCAGRSITVTLGAHNITEEEDTWQKLEVIKQFRHPKYNTSTLHHDIMLLKLKEKASLTLAVGTLPFPSQFNFVPPGRMCRVAGWGRTGVLKPGSDTLQEVKLRLMDPQACSHFRDFDHNLQLCVGNPRKTKSAFKGDSGGPLLCAGVAQGIVSYGRSDAKPPAVFTRISHYRPWINQILQAN
B3: in the assay on RBL-2H3 cells [2], the “fluorescence of ionomycin-induced release” value is listed as “about 30.000” and the signal to background came to 15. In addition, in the assay on RBL-2H3 cells [3], the “enzymatic activity of released reporter” value was “highest activity”.

B4: human granzyme A: Tryptase-like serine protease (GZMA, NM_006144) used as granule stored reporter (protein, UniProt P12544 29-262, looked up)
Granzyme A: IIGGNEVTPHSRPYMVLLSLDRKTICAGALIAKDWVLTAAHCNLNKRSQVILGAHSITREEPTKQIMLVKKEFPYPCYDPATREGDLKLLQLMEKAKINKYVTILHLPKKGDDVKPGTMCQVAGWGRTHNSASWSDTLREVNITIIDRKVCNDRNHYNFNPVIGMNMVCAGSLRGGRDSCNGDSGSPLLCEGVFRGVTSFGLENKCGDPRGPGVYILLSKKHLNWIIMTIKGAV
Regarding B4, in the assay on RBL-2H3 cells [2], the “fluorescence of ionomycin-induced release” value was “about 20.000” and the signal to background is recorded as 10. Further, the “enzymatic activity of released reporter” value with RBL-2H3 cells [3] was “higher activity than granzyme K”.

These data come from patent US9347942B2, “Ultrasensitive cell based sensors and uses thereof” (CANVAX BIOTECH SL, priority 2010, dated 2016).
